Measured values from patent US20180162952A1 (AbbVie / Abbott, published 2018).

T1: human PTK7, full length, expressed on transduced cells (human, UniProt Q13308 31-1070)
T1 sequence: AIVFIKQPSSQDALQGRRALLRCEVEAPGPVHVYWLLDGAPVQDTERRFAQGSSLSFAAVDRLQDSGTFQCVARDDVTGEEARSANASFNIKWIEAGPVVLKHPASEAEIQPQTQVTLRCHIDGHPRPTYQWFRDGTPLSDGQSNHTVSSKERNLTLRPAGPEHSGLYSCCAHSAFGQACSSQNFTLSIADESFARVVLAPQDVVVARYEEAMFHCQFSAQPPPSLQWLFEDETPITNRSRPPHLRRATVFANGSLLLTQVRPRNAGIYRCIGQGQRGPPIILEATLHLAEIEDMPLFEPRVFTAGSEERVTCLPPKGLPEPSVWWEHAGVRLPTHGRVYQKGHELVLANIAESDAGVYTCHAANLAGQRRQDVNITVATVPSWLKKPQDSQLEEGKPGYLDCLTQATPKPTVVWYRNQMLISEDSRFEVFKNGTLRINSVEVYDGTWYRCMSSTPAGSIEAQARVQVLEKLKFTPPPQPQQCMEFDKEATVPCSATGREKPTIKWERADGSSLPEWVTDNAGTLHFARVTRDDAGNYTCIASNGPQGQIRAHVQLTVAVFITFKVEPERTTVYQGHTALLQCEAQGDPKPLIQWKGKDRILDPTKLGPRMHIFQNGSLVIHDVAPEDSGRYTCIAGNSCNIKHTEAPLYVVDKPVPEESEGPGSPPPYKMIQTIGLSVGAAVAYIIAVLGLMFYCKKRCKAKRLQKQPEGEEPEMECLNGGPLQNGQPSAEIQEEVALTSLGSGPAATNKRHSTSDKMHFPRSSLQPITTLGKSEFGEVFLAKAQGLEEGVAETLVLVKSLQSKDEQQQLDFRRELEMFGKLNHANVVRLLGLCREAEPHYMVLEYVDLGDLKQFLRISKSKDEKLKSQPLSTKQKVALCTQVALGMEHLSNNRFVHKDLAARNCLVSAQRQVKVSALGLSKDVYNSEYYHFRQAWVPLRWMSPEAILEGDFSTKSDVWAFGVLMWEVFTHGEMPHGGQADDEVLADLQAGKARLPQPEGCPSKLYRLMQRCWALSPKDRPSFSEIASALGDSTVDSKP

T2: hPTK7-His (soluble His-tagged human PTK7 extracellular domain) (human, UniProt Q13308 31-704)
T2 construct: also called PTK7-ECD-His; monomeric recombinant hPTK7-His (isoform a)
T2 sequence: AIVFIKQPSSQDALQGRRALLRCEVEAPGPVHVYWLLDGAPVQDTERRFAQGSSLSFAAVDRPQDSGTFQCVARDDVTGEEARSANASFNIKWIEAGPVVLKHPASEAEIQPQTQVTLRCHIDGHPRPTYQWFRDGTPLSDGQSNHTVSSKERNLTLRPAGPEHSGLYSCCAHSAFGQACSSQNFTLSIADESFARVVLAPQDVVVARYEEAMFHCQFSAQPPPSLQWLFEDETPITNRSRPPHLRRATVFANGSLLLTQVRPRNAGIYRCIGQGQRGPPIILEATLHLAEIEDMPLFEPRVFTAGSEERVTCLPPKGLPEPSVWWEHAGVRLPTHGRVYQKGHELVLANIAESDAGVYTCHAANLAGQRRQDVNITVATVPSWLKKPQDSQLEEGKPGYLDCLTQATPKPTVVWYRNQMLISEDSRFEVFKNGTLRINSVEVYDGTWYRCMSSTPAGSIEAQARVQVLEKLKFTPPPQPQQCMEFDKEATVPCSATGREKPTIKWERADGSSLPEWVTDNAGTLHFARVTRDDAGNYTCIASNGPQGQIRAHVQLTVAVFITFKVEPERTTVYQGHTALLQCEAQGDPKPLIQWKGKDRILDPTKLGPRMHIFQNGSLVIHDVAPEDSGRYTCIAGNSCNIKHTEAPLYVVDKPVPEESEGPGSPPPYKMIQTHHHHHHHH

T3: murine PTK7-His (murine, UniProt Q8BKG3 23-696, limits assumed)
T3 construct: also called mouse PTK7-His; mouse PTK7
T3 sequence (looked up): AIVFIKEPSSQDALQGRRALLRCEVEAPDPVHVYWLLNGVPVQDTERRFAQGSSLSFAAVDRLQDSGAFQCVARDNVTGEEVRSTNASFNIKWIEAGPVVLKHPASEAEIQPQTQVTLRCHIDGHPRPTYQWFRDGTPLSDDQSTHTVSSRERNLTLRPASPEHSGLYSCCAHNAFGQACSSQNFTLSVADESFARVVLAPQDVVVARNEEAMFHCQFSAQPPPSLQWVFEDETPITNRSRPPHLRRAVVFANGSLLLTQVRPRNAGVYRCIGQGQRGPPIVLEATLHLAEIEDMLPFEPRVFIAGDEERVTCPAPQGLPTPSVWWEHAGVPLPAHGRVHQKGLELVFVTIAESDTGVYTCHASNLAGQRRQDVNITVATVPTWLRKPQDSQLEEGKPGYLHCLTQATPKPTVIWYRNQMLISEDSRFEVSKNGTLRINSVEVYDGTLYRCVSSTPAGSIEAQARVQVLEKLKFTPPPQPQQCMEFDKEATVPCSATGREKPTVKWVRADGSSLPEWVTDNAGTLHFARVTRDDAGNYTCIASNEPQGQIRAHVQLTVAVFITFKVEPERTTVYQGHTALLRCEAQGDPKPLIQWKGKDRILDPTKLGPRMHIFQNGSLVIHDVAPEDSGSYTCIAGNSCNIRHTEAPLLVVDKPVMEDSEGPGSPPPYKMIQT


Legend:
[1] = biological target: T1, human PTK7, full length, expressed on …; assay: cell-based or functional assay
[2] = biological target: T2, hPTK7-His (soluble His-tagged human …); assay: ForteBio (superscript F); column Affinity (nM)
Method: Specifically, a number of these antibodies were characterized as to affinity, kinetics, binning, and cross reactivity with regard to cynomolgus and murine homologs (e.g., by ForteBio).
In accordance with the instant invention modulator affinity was measured in three ways to ensure accuracy. […] Second, the affinities and kinetic constants kₒₙ and koff of the selected effectors were then measured using bio-layer interferometry analysis on a ForteBio RED (ForteBio, Inc.) with a standard antigen concentration series.

murine PTK7-His = biological target: T3, murine PTK7-His; assay: ForteBio, concentration series of recombinant monomeric antigen
Method: Finally, cross-reactivity with regard to cynomolgus and murine PTK7 homologs were evaluated in with a ForteBio using a concentration series comprising recombinantly expressed, monomeric antigen.

[3] = biological target: T2, hPTK7-His (soluble His-tagged human …); assay: SPR, Biacore, antigen at 25, 12.5 and 6.25 nM, 1:1 Langmuir model; murine parent antibody
[4] = biological target: T2, hPTK7-His (soluble His-tagged human …); assay: Biacore (superscript B); column Affinity (nM)
Method: (§1) Second, the affinities and kinetic constants kₒₙ and koff of the selected effectors were then measured using bio-layer interferometry analysis on a ForteBio RED (ForteBio, Inc.) with a standard antigen concentration series. Finally, the affinity of selected modulators was measured by surface plasmon resonance (Biacore System, GE Healthcare).

[5] = biological target: T2, hPTK7-His (soluble His-tagged human …); assay: Biacore (paragraph 369 names ForteBio for FIGS. 7C-7E)
Method: as §1

[6] = biological target: T1, human PTK7, full length, expressed on …; assay: cell-based or functional assay; remark: listed apart in the source
[7] = biological target: T2, hPTK7-His (soluble His-tagged human …); assay: SPR, Biacore, antigen at 25, 12.5 and 6.25 nM, 1:1 Langmuir model; humanized construct

binding result (murine PTK7-His)	Kd [4] [nM]	Kd [5] [nM]	Binder	EC50, saporin (Fab-ZAP) cell killing, 293.PTK7 Cells [1] [nM]	reduction in viability of 293.PTK7 cells at 100 pM (Fab-ZAP human) [6] [%]	other results
binds			SC6.23 (antibody, V domains shown, Murine monoclonal antibody, kappa light chain; also called murine SC6.23) VH: QVTLKESGPGILKPSQTLSLTCSFSGFSLSTSNMGVGWIRQPSGKGLEWLAHIWWDDDKYYNPSLKSQLTISKDTSRNQVFLKITSVDTEDTATYYCVRSNYGYAWFAYWGQGTLVTVSA VL: DIKMTQSPSSMYASLGERVTITCKASQDIYPYLNWFQQKPGKSPKTLIYRTNRLLDGVPSRFSGSGSGQDYSLTISSLDYEDMGIYYCLQYDEFPLTFGAGTKLELK	0.0011		Kd [3]: 2.3 nM
binds	1	1	SC6.41 (antibody, V domains shown, Murine monoclonal antibody, kappa light chain) VH: EVQLQQSGAESVRSGASVKLSCTASGLNIKDYYMHWVNLRPEQGLEWIGWIDPENGDTEYAPEFQGKATMTADTSSNTAYLQLSSLTSEDTAVYYCNACNYGSAYGYWGQGTTLTVSS VL: DIVLTQATPSVPVTPGESVSISCRSSKSLLHTKGDTYLYWFLQRPGQSPQLLIYRMSNLASGVPDRFSGSGSGTVFTLRISRVEAEDVGVYYCMQHLEYPFTFGSGTKLEIKR	0.0023		
binds	0.5	0.5	SC6.58 (antibody, V domains shown, Murine monoclonal antibody, kappa light chain) VH: EVKLLESGGGLVQPGGSLKLSCAASGFDFSRYWMSWVRQAPGKGLEWIGDLNPDSSAINYTPSLKDKFIISRDNAKNTLYLQMSKVRSEDTALYYCTLITTLVPYTMDFWGQGTSVTVSS VL: ETTVTQSPASLSMAIGEKVTIRCITNTDIDDDMNWYQQKPGEPPKLLISEGNGLRPGVPSRFSSSGYGTDFVFTIENMLSEDVADYYCLQSDNLPLTFGSGTKLEIK	0.0104		
		2.1	hSC6.41 (antibody, human IgG1, V domains shown, Humanized; also called humanized SC6.41) VH: QVQLVQSGAEVKKPGASVKVSCKASGYTFKDYYMHWVRQAPGQGLEWMGWIDPENGDTEYAPEFQGRVTMTRDTSTSTVYMELSSLRSEDTAVYYCNACNYGSAYGYWGQGTTLTVSS VL: DIVMTQSPLSLPVTPGEPASISCRSSKSLLHTKGDTYLYWFLQKPGQSPQLLIYRMSNRASGVPDRFSGSGSGTDFTLKISRVEAEDVGVYYCMQHLEYPFTFGQGTKLEIKR			

The remaining lines, values behind:

Binder	binding result (murine PTK7-His)	Kd [4] [nM]	Kd [5] [nM]	EC50, saporin (Fab-ZAP) cell killing, 293.PTK7 Cells [1] [nM]	reduction in viability of 293.PTK7 cells at 100 pM (Fab-ZAP human) [6] [%]	other results
SC6.21 (antibody, V domains shown, Murine monoclonal antibody) VH: DVQLQESGPGLVKPSQTLSLTCSVPDYSITSDYHWHWIRQFPGNKLEWMGYISSRGSTNYNPSLKNRISITHDTSENQFFLKLTSVTTEDSATYYCAGLSQLALDYWGQGTTLTVSS VL: DIVMSQSPSSLAVSVGEKVTLSCKSSQSLLYSSTQNNYLAWYQQTPGQSPKLLIYWASTRESGVPDRFTGSGSGTDFTLTISSVKAEDLAVYYCQQYYSYPWTFGGGTKLEIK	binds			0.0306		Kd [2]: < 0.1 nM
SC6.24 (antibody, V domains shown, Murine monoclonal antibody, kappa light chain) VH: QVQLQQSGPEVVRPGVSVKISCKGSGYTFTDYAVHWVKLSHAKSLEWIGVISTYNDYTYNNQDFKGKATMTVDKSSSTAYMELARLTSEDSAIYYCARGNSYFYALDYWGQGTSVTVSS VL: DIVLTQSPASLAVSLGQRATISCRASESVDSYGKSFMHWYQQRPGQPPKLLIYRASNLESGIPARFSGSGSRTDFTLTINPVEADDVATYYCQQSNEDPWTFGGGTKLEIK	binds	0.6	0.6	0.0023		
hSC6.23 (antibody, V domains shown, Humanized; also called humanized SC6.23) VH: QITLKESGPTLVKPTQTLTLTCTFSGFSLSTSNMGVGWIRQPPGKALEWLAHIWWDDDKYYSPSLKSRLTITKDTSKNQVVLTMTNMDPVDTATYYCVRSNYGYAWFAYWGQGTLVTVSS VL: DIQMTQSPSSLSASVGDRVTITCKASQDIYPYLNWFQQKPGKAPKTLIYRTNRLLDGVPSRFSGSGSGTDFTFTISSLQPEDIATYYCLQYDEFPLTFGAGTKLEIK					> 80	Kd [7]: 3.9 nM
hSC6.58 (antibody, human IgG1, V domains shown, Humanized; also called humanized SC6.58) VH: EVQLVESGGGLVQPGGSLRLSCAASGFDFSRYWMSWVRQAPGKGLEWIGDLNPDSSAINYVDSVKGRFTISRDNAKNSLYLQMNSLRAEDTAVYYCTLITTLVPYTMDFWGQGTSVTVSS VL: ETTLTQSPAFMSATPGDKVNISCITNTDIDDDMNWYQQKPGEAAILLISEGNGLRPGIPPRFSGSGYGTDFTLTINNIESEDAAYYFCLQSDNLPLTFGSGTKLEIKR			1		> 80	
hSC6.24 (antibody, human IgG1, V domains shown) VH: QVQLVQSGPEVKKPGASVKVSCKASGYTFTDYAVHWVRQAPGKRLEWIGVISTYNDYTYNNQDFKGRVTMTRDTSASTAYMELSRLRSEDTAVYYCARGNSYFYALDYWGQGTSVTVSS VL: EIVLTQSPATLSLSPGERATLSCRASESVDSYGKSFMHWYQQKPGQAPRLLIYRASNLESGIPARFSGSGSGTDFTLTISSLEPEDFAVYYCQQSNEDPWTFGGGTKLEIKR					> 80	
